experiment: soluble fraction after stress (log2 fold change); higher = more stays soluble; pooled small domains, quantitative proteomics; settings: stress: 75 degC
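Also: 20 min heating vs room temperature control held 20 min.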

Sequence | soluble fraction (log2)
HMYLQKGISNGKVYLSIVHGYRDPVTKKVRRKTIRSLGYLEDLEKQYADPIKHFEAVVAKMNEEEALE | -1.88
HMYLSNPTYRGDSLVDALTQIGVDASFASRRDLARKNGIENYTGSAKQNLELLQLLREGRLR | 0.402
HMYLYADIYKKLEEKIKNMEVGEKLPSERAMVQEYGVSRNVLREALVLLSERGLIEIRPGKGSYVTNQQ | -1.17
HMYNKKAYVNTNSDFLNVRSEASTESSVVDKLARGTEVNIVGNIQNGFYPIVLNEKNAWVSSDWISFEKPT | 0.053
HMYNNDEIEKIQTMYNAIYQLNDIEKALIMLFLEDKSYKEIAEIMGISEGNARIKMMRTKDKLKNLISKN | -0.527
HMYNNGYVNSDRVNFRKGASTNSDIYKVLDKNTSVTILDYEGDWSKVKINDTVGYVYTKYITAG | -0.368
HMYNTDAMGVRIGELRRAKGLTQEAFAKTLGISAQAVSKWETGLGFPDISLLPMIAETLGTKIETLFGAE | -0.299
HMYPATGTVVTAGGHLNMRSEPDRSGAILARIPNGTALTLTGKNGDWYAATYAGRSGYVSAQYISLS | -0.421
HMYPDNSGDIQQLAQNIFRQENVSVDRDGLALISSRLGSDHAATRSEIEKLALLAGPGGTLTFETISEVLG | -0.145
HMYPEDMMSLMRRALRLINHLESNRKDRHNSRQLELTESKIRRLARYYKGRGLIETEWAYKRDQLRLLV | -0.532
HMYPIYDYISNMYLGKHLNAGMSLEEARGIMDEMLEKLLFDVPEEYHIDRDHFYEYLKKYYTERFSA | -1.73
HMYPQLIGFKVIDEDKGEVGVVKEVSESMHQILLTVMKGKKEILIPLAEEFITKVNRHKKELFMVLPDG | -0.192
HMYRLDVEISDEIKRDIDEETLSEIKGIIAEDPRPSYQNDETRIYRFTFAGREISFRVKDRTATVTEIL | -0.921
HMYRPLYQQVYDFLVKQIAAGEWGPGESLPSEQALAGRLNVSQGTVRKALDALAADSLIDRRQGKGTYVAE | -0.236
HMYRPQQEFTMRDLFQNNLNGSESASVRRDALGAELGIGYGNAKRFLERLNHYGVSREEFTAALEKLESE | -0.522
HMYRSGGYTGAGKDDEEAGVVHRNEFVNTADAVRNPHVKRFLDVFNVAQKDGTIRMLNTSQILERARLDA | 0.115

Sequence | soluble fraction (log2)
HMYRYGETPMVVVPDLIGRTVSDIYEEMNADFRLEKFGNGNTVISQAPKPGERVEQGSVIRVYLSGQDQ | 0.0556
HMYSDERLQTFMELLPFFVEELSNKHVTRYNVWQNYREAYPNGYGRSQFFFHLGQNLEAKKK | -1.34
HMYSIKEFSFEVTTPGQRLDLFLSEELIGQTRSSIQNLILKKYVTVNGQVSKASYKVKTGEFISVKIPV | -3.1
HMYSINKTEFGERIKSAREELKMTQTQLAQLLKTSQTTVAKYEHGEQIPRADVLATISKATGKSTDWLLFG | -0.268
HMYSKQRELIMEAVFKNRVHPTAEYVYKLLKKDHPELSLGTVYRNLNYWAENNMLKKINVPGGSDRFDGT | 0.0438
HMYSLGPKERSIVSFIANRPGSRSGQIAKSLQIPLPTIKRILNGLVENKVIARHGIGAGTNYVVEDQA | -0.711
HMYSMSAPMPGVILEIKVAPGDQVNKGDVVMVLEAMKMKNDLHAARTGTVESIDINSGEQVKYGQVLLRFV | -0.225
HMYSQIGYGSSGSDVRKLQEILNGKGYNLSVDGQFGAKTKSAVRDYQSKNGLSVDGIVGVNTWGKLT | -0.0992
HMYSYNKEEVGKRIKSIRQQKGLTQESFGELFGASKGNVATWEKGISLPNASRLREIADLVSITVEELLYG | -0.735
HMYTLGEESDGTVRLLELYDIIKNKNEKIFVVDELDRSLHPNLTFNFVKKYLSIENKSQLIVSTH | 0.0677
HMYVKKSSFVKKSLNNYEFKITDNTNDLLIFYKGMLPDLFREEQGIVVEGLIDKNNNIVASKV | 0.0603
HMYVSGVPAITSIERVSTPGRRVYAGYTTVPKVIGGMGVSILTTSRGVMTDAEARRQKVGGELLAKV | 0.234
HMYVTGSAIRRLREKRKLTQAQLAAALSVSDKTVSKWETARGLPDITLLEPLARALQVSVPELLSGEEV | -1.58
HMYVVLYPGMARDEAVQVMNELQSRGIDYYEKNGNIYVPKTDENSLRMELANLGYPKTTNNYD | -0.0096
HMYYHQIIGLDVVDENGNTLGKIKEILSPGANDVWVVKRKQKNDLLLPVIDDVIKDVDLAAGKVHVELLEG | -0.269
